In patent US20190031785A1 (COMPASS THERAPEUTICS, published 2019):
One block for each binder: values may come before it.

Assays:
[1] = target: T1, Recombinant human CD137 Fc fusion protein (Sino Biological) (human, UniProt Q07011 24-186); assay: BLI (ForteBio Octet); CD137 Fc on Protein A sensors, 100 nM construct; column 'Affinity (nM)'
T1 construct: not shown: Fc part of a bought fusion protein
Description: (§1) Antigen binding of MIAC constructs were analyzed using ForteBio Octet. […] All antigens were reconstituted in PBS at the final concentration of 0.25 ug/ul. […] Association proceeded by dipping sensors in 100 nM MIAC constructs for 5 minutes and disassociation occurred in blank kinetics buffer for 5 minutes. For CD3 epsilon binding, antigen was immobilized on Ni-NTA sensors; association was performed in 50 nM MIAC constructs. Binding data were analyzed using ForteBio Data Analysis 9.0 software.

[2] = target: T2, Recombinant human PD-1 Fc fusion protein (Sino Biological) (human, UniProt Q15116 25-167); assay: ForteBio Octet bio-layer interferometry, sequential steps on one sensor: Her2 loading, blocking antibody, PID92, PD-1 (printed 'PI-1'), CD137
T2 construct: not shown: Fc part of a bought fusion protein
T2 sequence (Q15116 25-167 limits assumed): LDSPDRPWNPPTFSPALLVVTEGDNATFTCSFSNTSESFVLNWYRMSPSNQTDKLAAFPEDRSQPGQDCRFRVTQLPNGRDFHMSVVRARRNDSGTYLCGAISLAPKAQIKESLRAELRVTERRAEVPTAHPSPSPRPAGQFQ

[3] = target: T2, Recombinant human PD-1 Fc fusion …; assay: BLI (ForteBio Octet); antigen-Fc on Protein A sensors, construct in solution; NB: no binding detected
Description: as §1

[4] = target: T3, Recombinant human Her2 Fc fusion protein (Sino Biological) (human, UniProt P04626 23-652); assay: as above
T3 construct: not shown: Fc part of a bought fusion protein
Description: as §1

[5] = target: T1, Recombinant human CD137 Fc fusion …; assay: ForteBio Octet bio-layer interferometry, sequential steps on one sensor: Her2 loading, blocking antibody, PID7, PD-1 (printed 'PI-1'), CD137
[6] = target: T2, Recombinant human PD-1 Fc fusion …; assay: BLI (ForteBio Octet); PD-1 Fc on Protein A sensors, 100 nM construct; column 'Affinity (nM)'
Description: as §1

[7] = target: T1, Recombinant human CD137 Fc fusion …; assay: BLI (ForteBio Octet); antigen-Fc on Protein A sensors, construct in solution; NB: no binding detected
Description: as §1

Kd [1]: 230 pM
binding result [2]: no binding
B1: PID-92 (bispecific Her2/CD137 MIAC; urelumab IgG1 with trastuzumab scFv at the heavy chain C-termini) (bispecific antibody)
heavy: not shown
light: not shown
notes: also called α-Her2/α-CD137 MIAC; PID92 [Her2/CD137]

binding result [3]: no binding (tested: 100 nM)
binding result [4]: no binding (tested: 100 nM)
Kd [1]: 700 pM
B2: PID-90 (monospecific anti-CD137; urelumab Fab domain, human IgG1) (antibody, V domains shown)
VH: QVQLQQWGAGLLKPSETLSLTCAVYGGSFSGYYWSWIRQSPEKGLEWIGEINHGGYVTYNPSLESRVTISVDTSKNQFSLKLSSVTAADTAVYYCARDYGPGNYDWYFDLWGRGTLVTVSS
VL: EIVLTQSPATLSLSPGERATLSCRASQSVSSYLAWYQQKPGQAPRLLIYDASNRATGIPARFSGSGSGTDFTLTISSLEPEDFAVYYCQQRSNWPPALTFGGGTKVEIKR
notes: also called PID90 (CD137)

binding result [5]: no binding
Kd [6]: 120 pM
B3: PID-7 (bispecific Her2/PD-1 MIAC; pembrolizumab IgG1 with trastuzumab scFv at the heavy chain C-termini) (bispecific antibody)
heavy: not shown
light: EIVLTQSPATLSLSPGERATLSCRASKGVSTSGYSYLHWYQQKPGQAPRLLIYLASYLESGVPARFSGSGSGTDFTLTISSLEPEDFAVYYCQHSRDLPLTFGGGTKVEIKRTVAAPSVFIFPPSDEQLKSGTASVVCLLNNFYPREAKVQWKVDNALQSGNSQESVTEQDSKDSTYSLSSTLTLSKADYEKHKVYACEVTHQGLSSPVTKSFNRGEC
notes: also called α-Her2/α-PD-1

binding result [7]: no binding (tested: 100 nM)
binding result [4]: no binding (tested: 100 nM)
B4: PID-2 (monospecific anti-PD-1; pembrolizumab Fab domain, human IgG1) (antibody, V domains shown)
VH: QVQLVQSGVEVKKPGASVKVSCKASGYTFTNYYMYWVRQAPGQGLEWMGGINPSNGGTNFNEKFKNRVTLTTDSSTTTAYMELKSLQFDDTAVYYCARRDYRFDMGFDYWGQGTTVTVSS
VL: EIVLTQSPATLSLSPGERATLSCRASKGVSTSGYSYLHWYQQKPGQAPRLLIYLASYLESGVPARFSGSGSGTDFTLTISSLEPEDFAVYYCQHSRDLPLTFGGGTKVEIKR
notes: also called PID2 (PD-1)
